Test results as given in US6767890 (COASTSIDE BIO RESOURCES, dated 2004).
No end group written: not given here.

T1: Cyclooxygenase-1 from ram seminal vesicle (ram (sheep), UniProt P05979 25-600)
T1 sequence (looked up): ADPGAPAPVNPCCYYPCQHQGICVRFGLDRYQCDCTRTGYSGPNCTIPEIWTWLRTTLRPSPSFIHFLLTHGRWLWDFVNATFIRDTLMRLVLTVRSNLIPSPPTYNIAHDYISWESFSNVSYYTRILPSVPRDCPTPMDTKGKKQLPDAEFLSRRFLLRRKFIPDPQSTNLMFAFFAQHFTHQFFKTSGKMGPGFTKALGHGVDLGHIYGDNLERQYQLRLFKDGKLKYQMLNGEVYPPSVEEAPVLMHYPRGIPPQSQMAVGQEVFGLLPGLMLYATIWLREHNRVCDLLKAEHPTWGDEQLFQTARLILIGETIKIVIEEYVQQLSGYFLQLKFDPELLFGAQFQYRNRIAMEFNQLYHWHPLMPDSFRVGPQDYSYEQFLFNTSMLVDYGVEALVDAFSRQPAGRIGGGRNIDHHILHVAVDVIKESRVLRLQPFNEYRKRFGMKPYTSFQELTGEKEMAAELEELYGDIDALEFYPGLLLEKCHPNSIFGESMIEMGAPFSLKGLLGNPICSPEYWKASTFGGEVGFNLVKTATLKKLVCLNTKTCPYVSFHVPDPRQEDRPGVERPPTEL

T2: Cyclooxygenase-2 from sheep placenta (sheep, UniProt P79208 17-603)
T2 sequence (looked up): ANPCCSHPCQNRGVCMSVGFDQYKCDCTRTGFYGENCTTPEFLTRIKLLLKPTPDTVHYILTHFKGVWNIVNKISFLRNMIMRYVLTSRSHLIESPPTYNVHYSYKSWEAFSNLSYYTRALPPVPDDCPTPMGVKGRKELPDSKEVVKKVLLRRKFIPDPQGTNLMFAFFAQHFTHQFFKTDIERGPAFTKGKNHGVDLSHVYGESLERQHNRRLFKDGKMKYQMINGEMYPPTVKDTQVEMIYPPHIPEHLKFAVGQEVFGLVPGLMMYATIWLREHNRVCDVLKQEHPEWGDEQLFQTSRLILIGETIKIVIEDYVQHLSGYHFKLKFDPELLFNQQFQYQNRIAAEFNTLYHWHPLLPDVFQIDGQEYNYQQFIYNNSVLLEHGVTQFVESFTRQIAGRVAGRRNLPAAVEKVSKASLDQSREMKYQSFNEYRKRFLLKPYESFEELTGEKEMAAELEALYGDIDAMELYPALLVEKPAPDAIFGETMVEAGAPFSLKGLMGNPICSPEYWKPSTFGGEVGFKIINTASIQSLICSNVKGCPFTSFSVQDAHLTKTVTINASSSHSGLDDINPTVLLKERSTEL

T3: Interleukin-1α receptor on mouse Swiss/3T3 cells (mouse, UniProt P13504 20-576)
T3 construct: whole, on cells; also called Interleukin-1α (assay target)
T3 sequence (looked up): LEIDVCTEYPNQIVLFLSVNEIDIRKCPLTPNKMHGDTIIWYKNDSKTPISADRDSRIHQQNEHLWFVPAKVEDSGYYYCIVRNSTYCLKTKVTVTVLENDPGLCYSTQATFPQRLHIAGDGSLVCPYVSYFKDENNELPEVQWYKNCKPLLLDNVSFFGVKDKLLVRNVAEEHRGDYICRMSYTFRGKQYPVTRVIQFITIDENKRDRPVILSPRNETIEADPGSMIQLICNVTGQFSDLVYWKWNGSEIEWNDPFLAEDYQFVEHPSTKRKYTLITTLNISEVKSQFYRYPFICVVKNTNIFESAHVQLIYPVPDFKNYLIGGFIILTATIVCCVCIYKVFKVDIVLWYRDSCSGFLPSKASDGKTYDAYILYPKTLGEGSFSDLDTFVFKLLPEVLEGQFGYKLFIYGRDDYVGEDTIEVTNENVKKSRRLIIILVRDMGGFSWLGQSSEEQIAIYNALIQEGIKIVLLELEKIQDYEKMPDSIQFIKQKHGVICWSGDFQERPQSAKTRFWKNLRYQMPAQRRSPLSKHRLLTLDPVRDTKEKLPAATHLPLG


What was measured:
[1] = target: Galanin receptor of rat ileum (rat); assay: cell-based or functional assay
[2] = target: Collagenase IV from human U937 cells (human, UniProt P14780 107-707); assay: cell-based or functional assay
[3] = target: T1, Cyclooxygenase-1 from ram seminal …; assay: cell-based or functional assay
[4] = target: T2, Cyclooxygenase-2 from sheep placenta; assay: cell-based or functional assay
[5] = target: Phospholipase A2 from porcine pancreas (porcine, UniProt P00592 23-146); assay: cell-based or functional assay
[6] = target: Ca++/calmodulin dependent protein kinase II from rat brain (rat); assay: cell-based or functional assay
[7] = target: Protein kinase C, non-selective, from rat brain (rat); assay: cell-based or functional assay
[8] = target: Protein kinase C - γ, rabbit brain (recombinant) (rabbit, UniProt P10829 1-697, limits assumed); assay: cell-based or functional assay
[9] = target: T3, Interleukin-1α receptor on mouse …; assay: historical value of the assay laboratory, saturation analysis of [125I]IL-1 alpha on mouse Swiss/3T3 cells

Chain of Phospholipase A2 from porcine pancreas (P00592 23-146): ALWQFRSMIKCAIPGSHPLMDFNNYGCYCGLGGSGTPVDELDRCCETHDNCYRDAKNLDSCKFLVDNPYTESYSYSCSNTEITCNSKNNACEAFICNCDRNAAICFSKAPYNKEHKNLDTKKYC
Chain of Collagenase IV from human U937 cells (P14780 107-707): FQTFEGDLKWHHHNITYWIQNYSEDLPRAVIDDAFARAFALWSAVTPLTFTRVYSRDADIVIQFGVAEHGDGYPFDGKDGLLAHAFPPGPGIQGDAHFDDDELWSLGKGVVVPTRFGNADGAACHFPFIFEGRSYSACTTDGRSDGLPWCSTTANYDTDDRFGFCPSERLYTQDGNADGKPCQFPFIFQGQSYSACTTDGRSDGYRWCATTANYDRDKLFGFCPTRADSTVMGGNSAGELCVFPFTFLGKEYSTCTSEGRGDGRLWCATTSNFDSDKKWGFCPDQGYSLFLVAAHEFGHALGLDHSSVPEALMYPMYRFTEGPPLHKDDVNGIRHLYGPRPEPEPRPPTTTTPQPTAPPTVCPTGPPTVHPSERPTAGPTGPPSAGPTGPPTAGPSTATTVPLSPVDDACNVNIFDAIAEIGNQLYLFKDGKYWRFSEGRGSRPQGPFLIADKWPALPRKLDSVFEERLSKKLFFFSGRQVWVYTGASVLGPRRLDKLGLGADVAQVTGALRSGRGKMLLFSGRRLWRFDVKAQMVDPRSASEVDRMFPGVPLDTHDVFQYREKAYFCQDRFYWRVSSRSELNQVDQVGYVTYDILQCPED

Binder	Agonism (contraction of rat ileum relative to 0.1 µM galanin), peptide 30 µM [1] [%]	% Inhibition of enzyme activity, peptide 100.0 µM [2] [%]	% Inhibition of enzyme activity, peptide 300.0 µM [3] [%]	% Inhibition of enzyme activity, peptide 300.0 µM [4] [%]	% Inhibition of enzyme activity, peptide 300.0 µM [5] [%]	% Inhibition of enzyme activity, peptide 100.0 µM [6] [%]	% Inhibition of enzyme activity, peptide 300.0 µM [7] [%]	% Inhibition of enzyme activity, peptide 100.0 µM [8] [%]	Kd [9] [nM]
LPPSR (also: at least one D-amino acid, position not given here)	0	2	2	2	-11	12	-6	-6	
Interleukin-1α (ligand, UniProt P01583 113-271, looked up, 125I label on the radioligand, also called IL-1 alpha; [125I]IL-1 alpha) SAPFSFLSNVKYNFMRIIKYEFILNDALNQSIIRANDQYLTAAALHNLDEAVKFDMGAYKSSKDDAKITVILRISKTQLYVTAQDEDQPVLLKEMPEIPKTITGSETNLLFFWETHGTKNYFTSVAHPNLFIATKQDYWVCLAGGPPSITDFQILENQA									0.18
